Measured values as given in the supplement of paper PMC9170038.

System: MS2 coat protein
Assay: apparent KD of MS2 coat protein; higher = weaker reporter binding
Details: Eterna round: R107
Procedure, shortened: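 In 100 mM Tris-HCl pH 7.5 with 80 mM KCl and 4 mM MgCl2, and without or with constant ligand, SNAP-549-labelled MS2 coat protein was titrated in twofold steps from 0.7 or 1.5 nM to 3 µM. Per-step times went from 0.8–1.5 h down to 10–20 min. The RNA switches were transcribed on-chip from Illumina sequencing clusters, and apparent KD is the per-design median of normalised cluster binding-curve fits.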

[1] = input ligand: theophylline 20 uM
[2] = input ligand: theophylline 2 mM
[3] = input ligand: tryptophan 2.4 mM

Sequence	apparent KD of MS2 coat protein (input ligand: arginine 13.2 mM) [µM]	apparent KD of MS2 coat protein [1] [µM]	apparent KD of MS2 coat protein [2] [µM]	apparent KD of MS2 coat protein (input ligand: none) [µM]	apparent KD of MS2 coat protein [3] [µM]
GGGUGGUAGGCGGCCGCCACUGAUUUUUAUUUAUAGAUGACAUGAGGAUCACCCAUGUUGAUAUGCAGGACCGGGCCUGUUGUUG [aaaP]	0.0109	0.0197	0.0154	–	–
GGGUGGUAGGCGGCCGCCACUGAUUUUUAUUUAUAGAUGACAUGAGGAUCACCCAUGUUUAUGUGCAGGACCGGGCCUGUUGUGG [aaaR]	0.0122	0.0152	0.0156	0.0161	0.0139
GGUACAUGAGGAUCACCCAUGUAUUGGUACCGAGGACCGGUACGGCCGCCACUCGCAUGACAUGAGGAUCACCCAUGUGAAACCU [SSTA DOUBLE!!! :-D #12]	0.0293	0.0516	0.0599	–	–
GGUAUGUAUUCGGAAACGAAUGCAUACCAACGAGGACCGGUACGGCCGCCACUCGGGCGGCGAUCACAUGAGGAUCACCCAUGUA [Ex Tryptophan A 2]	0.028	0.0453	0.0566	–	–
GGUUGGUAUAUAUAUAUAUUGAUUACUGAAGGAGCGGGAAAUAACCCAGGUAGGUCGCAGAGAUCCACAUGAGGAUCACCCAUGU [!0.G]	0.0243	0.0603	0.0568	0.0451	0.0391
GGUUGGUGUAGAGAUAUAUUGAUUACUGAAGGAGCGGGAAAUAACCCAGGUAGGUCGCAGAGAUCCACAUGAGGAUCACCCAUGU [!0.K]	0.0306	0.053	0.0369	0.0397	0.0298
GUCAGUAGAACAGAUACCAGUCAAAGGCUGUGAUCUCAUAACAUGAGGAUCACCCAUGUUGACCCUUGGCAGCUGUGGGCGAGGG [#20 Exclusion-TheophyllineB]	0.026	0.0778	–	–	0.0437
GUCCACAGCCGAAGGAGCGCUAGAAGAUGACAUGAGGAUCACCCAUGUGUGUGAUGUGGCUAGCAGGUAGGUCGCGGAGUGGAUU [Exclusion - Arginine B (Freestyle 14)]	0.0205	0.0303	0.0248	0.0217	0.0196
GUCCUAAGGUCGGCCGCCACUGUAGAGUGUGAGCCAUCACAUGAGGAUCACCCAUGUUGUUGCUAUAGGACCGGGAUUGUAGGAC [#22 Exclusion Tryptophan B]	0.0135	0.0155	0.0126	–	–
GUCCUAGCGAUCGCUCGCUAGGACGCGGAUACCAGCGAGGUCCAUCGCCCUUGGCAGCCGAACAUGAGGAUCACCCAUGUCGGUA [#1 Same State - Theophylline A Attempt #18 (HarryS)]	0.0084	0.0142	–	–	0.0102
GUGUGCGGCACGGCCGCCACUGCGGUGGUGUGACAUGAGGAUCACCCAUGUUGUCAUGCGGCCCUUAGGACCGGGUGGCGUGCAC [#1 Exclusion - Tryptophan B Attempt #17 (HarryS)]	0.0274	0.0612	0.0504	0.0373	0.0465
GUUAGAUCAAAAGAUUUAACAGUGGGUGAACGAGGACCGGUACGGCCGCCACUCGGACAUGAGGAUCACCCAUGUCCAUGUGAAA [AstrosExyTryA#16]	0.0194	0.0152	0.0159	0.0172	0.0435
GUUAUGGACCUGGAUACCAGCUGGUACAAGGGCGGUCUACAUGAGGAUCACCCAUGUGUCAGCCCUUGGCAGCCAGCAACCCACU [Cele]	0.0106	0.0167	–	–	0.00957
GUUGGUUUGGGAAGGAGCGGGUAUGUUGUCUACUUGAUCCUAACAUGAGGAUCACCCAUGUCCCAGGUAGGUCGCCCAGGCUUUG [12.aD]	0.0357	0.23	0.103	0.139	0.0984
UAACAUGAGGAUCACCCAUGUUUAGAUGAACGAGGACCGGUACGGCCGCCACUCGAUAAGUGGCAAGAACGAGGGAUUGUAUGCU [Same State Trp A GF3]	0.0127	0.0226	0.0117	0.0138	0.0132
UAACAUGAGGAUCACCCAUGUUUGAAGGAACGAGGACCGGUACGGCCGCCACUCGACGAGUGGAUGAGAAGUGGGCUUGUGUGCU [Same State Trp A GF9]	0.0137	0.0163	0.013	0.0155	0.0165
UAAUAAUUGUGAUUCUCAGGUCCUCGAUAACGAGGACCGGUACGGCCGCCACUCGAACAUGAGGAUCACCCAUGUAUGAGGACCU [M'-T'-T-MS2-T'' - Design 3]	0.0138	0.021	0.0196	0.0159	0.0138
UAAUAGGUCCAGAACGUACCAGGUGAUCAACGAGGACCGGUACGGCCGCCACUCGAAACAUGAGGAUCACCCAUGUAACUGGACC [|T'-M'-Trp-Ms2|_Design 2_ML]	0.173	0.0953	0.518	0.0729	0.0614
UAAUCCGGUCCUCGAUAGGUGAUCCUCUAACGAGGACCGGUACGGCCGCCACUCGAUAACAUGAGGAUCACCCAUGUAAUAAUAA [|T'-M'-Trp-Ms2|_Design16]	0.033	0.0419	0.0451	–	–

Sequence	apparent KD of MS2 coat protein (input ligand: arginine 13.2 mM) [µM]	apparent KD of MS2 coat protein [1] [µM]	apparent KD of MS2 coat protein [2] [µM]	apparent KD of MS2 coat protein (input ligand: none) [µM]	apparent KD of MS2 coat protein [3] [µM]
UACAUGAGGAUCACCCAUGUAUGAAUAGAUACCAGAUAAAAUAAGGUCCCUUGGCAGCUAGUGAAUAAAGGGUGGGUAAAAUAAU [Exclusion Theophyline A GF 1]	0.0113	0.0123	–	–	0.00924
UACAUGAGGAUCACCCAUGUAUGUAUCGAAGGAGCGCGUGUAAACGCAGGUAGGUCGCGAACAUGAGGAUCACACAUGAGGAUCA [Same State Arginine A]	0.0209	0.0311	0.0375	–	0.0293
UACAUGAGGAUCACCCAUGUCUGAACUGAAGGAGCGCUAAACAAGGCAGGUAGGUCGCGGAAUUUUGUGUGCAUAUGCAUAUGGG [9.K]	0.0236	0.0467	0.0365	0.0306	0.0311
UACAUGAGGAUCACCCAUGUGUAGAGGGAUACCAGUGACAGUAAGCGCCCUUGGCAGCCCGUGAACAAUGGGUGAGCAAAAUAGU [#17 Exclusion-TheophyllineA]	0.0414	0.233	0.0256	0.0194	0.0447
UACUUGCGGUCGGCCGCCACUACGAGGCAGACCUUCACAUGAGGAUCACCCAUGUAGUCGGCUAGUAGGACCGGGAUGGCAUAAA [Solasoce]	0.0286	0.0419	0.0418	0.0292	0.0163
UACUUGCUGACGGCCGCCACUAGAACAUGAGGAUCACCCAUGUACCUGGUCCUUCAUGGGUGGACUAGGACCGGGUCAGCAAGAU [(Trp1)-(Ms2)-(T)'-(M)'-(Trp2)_Design4]	0.186	0.418	0.517	–	–
UAGAUAGAGGGAAGGAGCGCAGUAACAUAACAUGAGGAUCACCCAUGUAAGAAAUUAAUAAUGCAGGUAGGUCGCCCAAGAUGAU [#10 Same State - Arginine B]	0.0124	0.017	0.0151	0.0136	0.0139
UAGUACAUGAGGAUCACCCAUGUCGGAGGUCGAGGACCGGUACGGCCGCCACUCGGUCAUGCCCUACGAUACGACAGGAAUCUGU [theeternabot_sameState_MS2_Trp_A_28]	0.0218	0.0365	0.0289	–	–
UAUACUAUGAAAGUAGUAUAUACGUGUUGACGAGGACCGGUACGGCCGCCACUCGACAUGAGGAUCACCCAUGUAUAGAAUAAGU [TrypA_F1]	0.0186	0.0244	0.03	0.0237	0.0153
UAUAUUGUGAUGGAUACCAGCAGAGAAAACGUUUAUCCUAACAUGAGGAUCACCCAUGUAUGCCCUUGGCAGCUGUUGUGAUAUA [8.N]	0.0476	0.0739	–	–	0.0611
UAUCCACAUGAGGAUCACCCAUGUAAGGAAGGAGCGGUGAAUGCACCAGGUAGGUCGCCUUGCUGAGGACUGUCGGUGGAUUCGU [Exclusion - Arginine A (Freestyle 22)]	0.0268	0.0432	0.0395	0.0328	0.032
UAUCGACACUGAAGGAGCGAGAUGACAAACAUGAGGAUCACCCAUGUUAUGGGUUGUUAAUCUCAGGUAGGUCGCAGUGGUCGCA [Same State Arginine B GF 18]	0.0678	0.13	0.108	0.0933	0.0857
UAUCGUCAGACGGCCGCCACUAGAACAUGAGGAUCACCCAUGUAGGUCCUAGAUUCCUCAAUAACUAGGACCGGGUCUGACGAAU [(Trp1)-(Ms2)-(T)'-(M)'-(Trp2)_Design14]	0.0818	0.137	0.224	–	–
UAUCGUCAGACGGCCGCCACUAGAACAUGAGGAUCACCCAUGUAGUGGCCGGAUACCUCAAUAACUAGGACCGGGUCUGACGAAU [(Trp1)-(Ms2)-(T)'-(M)'-(Trp2)_Design17]	0.0366	0.0965	0.054	0.0522	0.0327
UAUGCACAUGAGGAUCACCCAUGUAUGGAAGGAGCGGUGAAUAAACCAGGUAGGUCGCCAUGGUGAGGGUCAUCUAUGUAAUCGU [Exclusion - Arginine A (Freestyle 5)]	0.051	0.0784	0.0803	0.0473	0.0593
UAUUCUGACACAGAUACCAGUCAAUUCCGUGGCAAGUGCUACAUGAGGAUCACCCAUGUCGACCCUUGGCAGCUGAAGAGAUACA [theeternabot_exclusion_MS2_Theo_B_50]	0.0109	0.0147	–	–	0.0112
UCAAAUGCGGCGGCCGCCACUCGCGGAUAACGAUAGCUUAACAUGAGGAUCACCCAUGUGUCAUGGAGGACCGGGCCCAUAACAU [ttmullin]	0.0234	0.0351	0.0371	0.0272	0.0239
UCACAUGAGGAUCACCCAUGUGUCAGAGAAGGAGCGGCCGCAAGGCCAGGUAGGUCGCUCGGGUAUUGUGAGGUUCACCCGUGUG [#1 Exclusion - Arginine A Attempt #12 (Inspired by cyborg)]	0.0267	0.0573	0.0444	0.0358	0.0346
UCAGGAAGAGCGGCCGCCACUGUUUGGCAUGCGGAUGAAGGAACAUGAGGAUCACCCAUGUAGAUUAGGACCGGGCUUGCGGAGA [szeemullin]	0.0209	0.0242	0.0194	0.0137	0.0126
